One block for each molecule: values may come before it.
Columns and labels:
[1] = molecular target: VEGF receptors on bovine aortic endothelial cells; assay: cell-based or functional assay

rPAI-1Δ23, P79335, sequence (P79335 whole entry, looked up, stated change not applied): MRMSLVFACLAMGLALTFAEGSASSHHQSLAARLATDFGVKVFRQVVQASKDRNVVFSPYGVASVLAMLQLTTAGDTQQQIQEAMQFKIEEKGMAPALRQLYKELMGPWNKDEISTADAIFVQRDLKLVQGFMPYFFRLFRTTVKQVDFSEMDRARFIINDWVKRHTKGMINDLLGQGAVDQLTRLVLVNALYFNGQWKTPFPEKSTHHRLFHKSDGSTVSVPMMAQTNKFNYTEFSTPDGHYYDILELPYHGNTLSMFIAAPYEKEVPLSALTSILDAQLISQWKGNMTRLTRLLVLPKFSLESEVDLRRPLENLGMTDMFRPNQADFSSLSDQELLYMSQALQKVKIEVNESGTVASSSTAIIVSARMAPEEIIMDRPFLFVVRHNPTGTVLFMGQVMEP
rPAI-123, P79335, sequence (P79335 whole entry, looked up): as the sequence (P79335 whole entry, looked up, stated change not applied) above

apoptosis (Annexin V) in rPAI-123-treated BAEC versus PAEC [1]: 60%
Molecule: 125I-VEGF (ligand)

B1: plasminogen (protein)
chain: EPLDDYVNTQGASLFSVTKKQLGAGSIEECAAKCEEDEEFTCRAFQYHSKEQQCVIMAENRKSSIIIRMRDVVLFEKKVYLSECKTGNGKNYRGTMSKTKNGITCQKWSSTSPHRPRFSPATHPSEGLEENYCRNPDNDPQGPWCYTTDPEKRYDYCDILECEEECMHCSGENYDGKISKTMSGLECQAWDSQSPHAHGYIPSKFPNKNLKKNYCRNPDRELRPWCFTTDPNKRWELCDIPRCTTPPPSSGPTYQCLKGTGENYRGNVAVTVSGHTCQHWSAQTPHTHNRTPENFPCKNLDENYCRNPDGKRAPWCHTTNSQVRWEYCKIPSCDSSPVSTEQLAPTAPPELTPVVQDCYHGDGQSYRGTSSTTTTGKKCQSWSSMTPHRHQKTPENYPNAGLTMNYCRNPDADKGPWCFTTDPSVRWEYCNLKKCSGTEASVVAPPPVVLLPDVETPSEEDCMFGNGKGYRGKRATTVTGTPCQDWAAQEPHRHSIFTPETNPRAGLEKNYCRNPDGDVGGPWCYTTNPRKLYDYCDVPQCAAPSFDCGKPQVEPKKCPGRVVGGCVAHPHSWPWQVSLRTRFGMHFCGGTLISPEWVLTAAHCLEKSPRPSSYKVILGAHQEVNLEPHVQEIEVSRLFLEPTRKDIALLKLSSPAVITDKVIPACLPSPNYVVADRTECFITGWGETQGTFGAGLLKEAQLPVIENKVCNRYEFLNGRVQSTELCAGHLAGGTDSCQGDSGGPLVCFEKDKYILQGVTSWGLGCARPNKPGVYVRVSRFVTWIEGVMRNN
plasminogen cleavage (immunoblot probed for mini-plasminogen) (rPAI-123, P79335): a distinct plasminogen cleavage product near 50 kDa in all reactions containing the rPAI-123 protein (3, 15 and 30 nM)
plasminogen cleavage (immunoblot probed for mini-plasminogen) (rPAI-1Δ23, P79335): the rPAI-1?23 protein did not cleave plasminogen, even when increasing concentrations of the recombinant protein were added

Reference: US20040121955A1
